For experiment [1], the target named is human FGFR3 (isoform and construct not stated) (human) (UniProt P22607). Put plainly: Scatchard analysis, radioiodinated antibody cell binding; OPM2 cells.
Experiment [2] has the same target. Put plainly: Scatchard analysis, radioiodinated antibody cell binding; KMS11 cells.
Experiment [3] has the same target. Put plainly: Scatchard analysis, radioiodinated antibody cell binding; RT112 cells.
For experiment [4] the target is unchanged. Briefly: Scatchard analysis, radioiodinated antibody cell binding; UMUC-14 cells.
Experiment [5] shares this target. Briefly: cell-based or functional assay.
In experiment [6] the target is T1, His-tagged IgD2-D3 of human FGFR3-IIIb (human, UniProt P22607-2 143-374, limits assumed).
T1 construct: domain: IgD2-D3; also called FGFR3-IIIb-His protein; Human FGFR3 ECD IIIb; not shown: His tag
T1 sequence (looked up): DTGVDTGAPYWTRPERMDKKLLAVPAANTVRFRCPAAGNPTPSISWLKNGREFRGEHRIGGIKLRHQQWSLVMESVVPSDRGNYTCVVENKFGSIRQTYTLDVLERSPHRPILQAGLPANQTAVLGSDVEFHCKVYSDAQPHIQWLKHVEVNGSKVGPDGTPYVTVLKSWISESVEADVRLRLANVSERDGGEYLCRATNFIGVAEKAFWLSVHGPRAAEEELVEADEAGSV
Put plainly: BIAcore SPR; antibody on CM5 chip, FGFR3-His protein injected. Background: In SPR one partner is held on a chip, and binding of the other changes the refractive index at the surface.

Experiment [7] deals with T2, His-tagged IgD2-D3 of human FGFR3-IIIc (human, UniProt P22607 143-372).
T2 construct: domain: IgD2-D3; also called FGFR3-IIIC-His protein; IIIc-His protein; not shown: His tag
T2 sequence: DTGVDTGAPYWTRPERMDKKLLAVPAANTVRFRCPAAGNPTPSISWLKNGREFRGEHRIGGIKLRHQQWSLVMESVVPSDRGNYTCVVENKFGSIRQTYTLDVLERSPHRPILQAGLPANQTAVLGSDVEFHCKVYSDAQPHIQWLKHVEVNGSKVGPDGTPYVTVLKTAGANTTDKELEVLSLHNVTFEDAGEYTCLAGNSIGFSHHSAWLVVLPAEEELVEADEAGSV
Described as above.

Experiment [8] deals with T2, His-tagged IgD2-D3 of human FGFR3-IIIc. Put plainly: BIAcore SPR; R3 Ab on the chip, FGFR3-IIIc-His protein injected, 25 C.
Experiment [9] addresses T3, human FGFR3-IIIc ECD-human Fc chimeric protein (human, UniProt P22607 23-375).
T3 construct: extracellular domain; Made in CHO cells, purified on protein A; also called FGFR3-Fc chimeric protein; not shown: human Fc
T3 sequence (looked up): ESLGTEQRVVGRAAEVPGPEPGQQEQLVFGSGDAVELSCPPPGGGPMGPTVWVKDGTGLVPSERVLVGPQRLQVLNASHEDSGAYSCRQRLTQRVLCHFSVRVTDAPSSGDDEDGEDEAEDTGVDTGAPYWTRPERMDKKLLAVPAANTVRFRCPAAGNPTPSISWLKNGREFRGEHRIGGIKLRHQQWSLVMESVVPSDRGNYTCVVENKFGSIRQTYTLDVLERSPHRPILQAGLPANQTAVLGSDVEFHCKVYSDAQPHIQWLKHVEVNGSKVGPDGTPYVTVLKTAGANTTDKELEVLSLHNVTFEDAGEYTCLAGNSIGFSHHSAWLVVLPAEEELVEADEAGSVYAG
Put plainly: competition ELISA; FGFR3-IIIc-Fc captured, antibody titrated, then FGF1 and heparin; competitor FGF1. For orientation: In an ELISA, binding on a coated surface is turned into a signal by an enzyme label.

The target of experiment [10] is T3, human FGFR3-IIIc ECD-human Fc chimeric …. Put plainly: competition ELISA; FGFR3-IIIc-Fc captured, antibody titrated, then FGF9 and heparin; competitor FGF9.

Changes are numbered by the printed parent chain.

What is called Kd is the concentration at which binding is half-saturated. Read a low Kd as tighter binding. As for R3Mab, the Kd turned out to be 640 pM in experiment [1], 350 pM in [2], 160 pM in [3] and 340 pM in experiment [4].

B1: anti-FGFR3 antibody clone 184.6.1 (antibody, V domains shown)
VH: EVQLVESGGGLVQPGGSLRLSCAASGFTFTSTGISWVRQAPGKGLEWVGRIYPTNGSTNYADSVKGRFTISADTSKNTAYLQMNSLRAEDTAVYYCARARTYGIYDLYVDYTEYVMDYWGQGTLV
VL: DIQMTQSPSSLSASVGDRVTITCRASQDVDTSLAWYQQKPGKAPKLLIYSASFLYSGVPSRFSGSGSGTDFTLTISSLQPEDFATYYCQQSTGHPQTFGQGTKVEIKR
With B1, the increased inhibitory activity in the Ba/F3-FGFR3 viability assay (fold greater than parent clone 184.6) in experiment [5] stood at 100. In addition, the Kd in experiment [6] is 264 pM; in [7], 1440 pM.

B2: anti-FGFR3 antibody clone 184.6.1N54S (antibody, V domains shown)
VH: B1 VH with N55S
VL: B1 VL
Broadly, the koff is a measure of how fast the partners let go of each other. Higher therefore signals fast dissociation. The term kon denotes the rate constant with which the complex forms. A word on the IC50: it is the concentration that gives 50% inhibition. High values mean lower potency, low ones higher potency. Consider B2, for which, in experiment [8], the affinity, expressed as Kd, was 3520 pM; the koff was 0.00032 s⁻¹; the kon was 91000 M⁻¹ s⁻¹. In experiment [9], the IC50 was found to be 1700 pM. The IC50 in [10] stood at 1300 pM.

B3: anti-FGFR3 antibody clone 184.6.58 (antibody, V domains shown)
VH: B1 VH
VL: B1 VL with T31I, F53S, Y55A, S91G, T92A, H94N, Q96Y
B3: the increased inhibitory activity in the Ba/F3-FGFR3 viability assay (fold greater than parent clone 184.6) in experiment [5] turned out to be 100. Moreover, the Kd is 190 pM in experiment [6] and 880 pM in [7].

B4: anti-FGFR3 antibody clone 184.6 (antibody, V domains shown)
VH: B1 VH
VL: B1 VL with D30S, S32A, L33V, T92Y, G93T, H94T, Q96P
notes: The tie to the clone name is indirect
As for B4, the Kd in experiment [6] amounted to 38000 pM; in [7] it was 110000 pM.

B5: anti-FGFR3 antibody clone 184.6.62 (antibody, V domains shown)
VH: B1 VH with T30S, S31T, T54L, N55Y, N59H
VL: B1 VL with D30S, S32A, L33V, S91T, T92Y, G93T, H94T, P95S, Q96L
As to B5, in experiment [5], the increased inhibitory activity in the Ba/F3-FGFR3 viability assay (fold greater than parent clone 184.6) was found to be 100. The Kd in experiment [6] is 120 pM; in experiment [7], 2240 pM.

Source of the values: US20100291114A1 (published 2010).
